± gives the half width of the 95% confidence interval.
Assays:
[1] = folding stability dG unfold from chymotrypsin proteolysis; higher = more stable
Experimental: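 Folding stability of de novo designed mini-proteins (<80 aa, no Cys; designed by TrROS, TrMRF, ProteinMPNN and the joint model) was measured by cDNA display proteolysis with trypsin and chymotrypsin. Each protease was used at 11 concentrations in a threefold dilution series plus a no-protease condition. K50 was inferred by Bayesian fitting of sequencing counts, and dG unfold was derived against a sequence-predicted unfolded-state K50 (Tsuboyama et al. method). Sequences shown include variable-length N-terminal GS-type padding (SAGGSAGG...) inside a display construct carrying a PA tag. Rows were kept only if the AF2 dimer inter-PAE was >15, to exclude likely homo-oligomers.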

[2] = folding stability dG unfold (combined trypsin and chymotrypsin); higher = more stable
Method in brief: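 Unfolding free energy was derived, per protease or combined, by relating Bayesian-fitted K50 values from sequencing counts to a sequence-predicted unfolded-state K50 and a shared folded-state K50. The underlying digests exposed cysteine-free mini-proteins under 80 residues, in a PA-tagged cDNA display construct, to trypsin and chymotrypsin at 11 threefold-diluted concentrations and to a no-protease condition. A filter kept only designs with AlphaFold2 dimer inter-PAE above 15.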

Sequence | folding stability dG unfold [1] [kcal/mol] | folding stability dG unfold [2] [kcal/mol]
SAGGSAGGSAGGLKELADKLNPGFEIRVENIEPTPGPVRINVRAPNEGVPRSIPIDPDDISAGGSAGGSAGG [r7_303_TrROS] | 0.993 ± 0.018 | 0.479 ± 0.043
SAGGSAGGSAGGLLRAPDGSTAIVVRDASPETVARALHELNPNAVIVVAPIPNVAVIYLDSAGGSAGGSAGG [r7_370_TrMRF] | 0.178 ± 0.1 | -0.575 ± 0.51
SAGGSAGGSAGGLPPGQKYVIKMYNPNGKRQEHEFEIPPGEPFKDFEFPNGWRYDIYPVKSAGGSAGGSAGG [r7_132_TrROS] | 0.0841 ± 0.29 | -0.321 ± 0.42
SAGGSAGGSAGGMAVVVDSPEEAEEVIEELERSFPALGAKVVVPRVQVGDKLVLPLGLELSAGGSAGGSAGG [r7_588_TrMRF] | 0.0463 ± 0.068 | -0.501 ± 0.15
SAGGSAGGSAGGMIKVLEKKEFTPPTGGKEYELKTLDESNGTESIIKFPKEEYKNLKIPSAGGSAGGSAGGS [r10_326_JUSTAS] | 0.681 ± 0.12 | 0.145 ± 0.2
SAGGSAGGSAGGMILTGDRAEILARLEAEGLGVAEEETVEEGDAPVTPVRVEVPPGAAGSAGGSAGGSAGGS [r10_885_JUSTAS] | 0.972 ± 0.028 | 0.561 ± 0.11
SAGGSAGGSAGGMITVNPRGGTATFTTSSGETTTVPASLADQVRVDTGLPDAPVFTAPPASAGGSAGGSAGG [r7_235_JUSTAS] | 0.183 ± 0.23 | < -1
SAGGSAGGSAGGMKVTVEYPDALSVEVEPDSATTTYPNGSRIVVEAPGVTTYDPLPPERSSAGGSAGGSAGG [r7_30_JUSTAS] | 0.117 ± 0.046 | -0.39 ± 0.24
SAGGSAGGSAGGMLPFEVLEVTTSTGKGKTTRTVLAREPEGPEVVLTFSPASPEEIERLLSAGGSAGGSAGG [r7_365_JUSTAS] | 0.735 ± 0.13 | 0.224 ± 0.13
SAGGSAGGSAGGMNTPIVVETEDLPSSRPVEEVKAEAAPKGYTEVKAYPDGTVVITKVRSSAGGSAGGSAGG [r11_961_JUSTAS] | 0.607 ± 0.047 | 0.164 ± 0.21
SAGGSAGGSAGGMPSSVVINLNLSKEEIEAIKKGKPVSPELKPAIEEAKKEGLKVEIKKSAGGSAGGSAGGS [r10_890_JUSTAS] | 0.796 ± 0.037 | 0.309 ± 0.13
SAGGSAGGSAGGMPVPRRLEIVVEPEYTEEEIEKIKKELIENGNPEIEEVVVVLPPNLESAGGSAGGSAGGS [r10_233_JUSTAS] | 0.285 ± 0.04 | -0.385 ± 0.36
SAGGSAGGSAGGMRITIDDWDPDEGPYRVKVTNPDNNKKKTMPYENLEELAKEGPVEIHRSAGGSAGGSAGG [r7_452_TrROS] | 0.368 ± 0.18 | -0.143 ± 0.13
SAGGSAGGSAGGMTITVPVEGVEEAIEKAKKEHPNTEIKITLLKPGGEKATTRTVKILGSAGGSAGGSAGGS [r10_741_JUSTAS] | -0.403 ± 0.13 | -0.951 ± 0.29
SAGGSAGGSAGGMTLTITDDDPSVGPRTFTLTEPGSSKTTTLTSAEMEALKAAGPVTVAGSAGGSAGGSAGG [r7_452_JUSTAS] | 0.122 ± 0.22 | -0.209 ± 0.23
SAGGSAGGSAGGMTTKYVITVEVPGENRTETIYLDVPPSRPEEAEALAKEISPNAKIERLSAGGSAGGSAGG [r11_250_JUSTAS] | 0.187 ± 0.16 | -0.144 ± 0.29
SAGGSAGGSAGGMTTLVLPAEVEPVPDGVRVRLPDGEDLYVPPGERVERTPDRVEVTLGSAGGSAGGSAGGS [r10_305_JUSTAS] | 0.383 ± 0.058 | -0.448 ± 0.25
SAGGSAGGSAGGMTVTVTVPPEKVEETIKKLGSKAKSVEREVLETPLGEKVAVVTVTLENSAGGSAGGSAGG [r7_904_JUSTAS] | 0.647 ± 0.023 | 0.047 ± 0.093
SAGGSAGGSAGGMVEVLPVPDGSTLERDPAGYVTRYDPATGTATTVPLADVELSPGSPELSAGGSAGGSAGG [r7_656_JUSTAS] | 0.679 ± 0.11 | -0.0715 ± 0.23
SAGGSAGGSAGGMVKKTYEKKKPPGSMEYVTEKEYDPKTNTVKTTTVPVSEYKNIPNKNSAGGSAGGSAGGS [r10_1077_JUSTAS] | -0.0965 ± 0.56 | < -1
SAGGSAGGSAGGNKIHIMMPYDWAEEFANELQQQGIDPDNVKIEVHPMEMPPPPPPGDKSAGGSAGGSAGGS [r10_602_TrROS] | -0.0563 ± 0.11 | < -1
SAGGSAGGSAGGPDVTTSDSVSLERLPDDTIVLRRTTTVTPPTGPPVVTSTTTVLPPSTLSAGGSAGGSAGG [r17_312_JUSTAS] | -0.319 ± 0.41 | < -1
SAGGSAGGSAGGPEIKPFDSLEEVVEEIKKNPNKERIYLLPDSVIYTLKEDKILKIEPLKSAGGSAGGSAGG [r7_532_TrMRF] | -0.105 ± 0.47 | < -1
SAGGSAGGSAGGPERELTVPITTPDGSGKSISAELGEEELEKLIEENPEWKEAIIEARRESAGGSAGGSAGG [r7_637_JUSTAS] | 0.975 ± 0.059 | 0.483 ± 0.11

— the supplement of paper PMC12764529
